Columns and labels:
[1] = target: wild type Mfn2 with a C-terminal 3xFLAG tag (UniProt Q80U63); assay: native gel or EMSA
[2] = target: the molecule itself; assay: native gel or EMSA

wild type Mfn2 with a C-terminal 3xFLAG tag (from UniProt Q80U63 1-757) (natural protein), sequence (Q80U63 whole entry): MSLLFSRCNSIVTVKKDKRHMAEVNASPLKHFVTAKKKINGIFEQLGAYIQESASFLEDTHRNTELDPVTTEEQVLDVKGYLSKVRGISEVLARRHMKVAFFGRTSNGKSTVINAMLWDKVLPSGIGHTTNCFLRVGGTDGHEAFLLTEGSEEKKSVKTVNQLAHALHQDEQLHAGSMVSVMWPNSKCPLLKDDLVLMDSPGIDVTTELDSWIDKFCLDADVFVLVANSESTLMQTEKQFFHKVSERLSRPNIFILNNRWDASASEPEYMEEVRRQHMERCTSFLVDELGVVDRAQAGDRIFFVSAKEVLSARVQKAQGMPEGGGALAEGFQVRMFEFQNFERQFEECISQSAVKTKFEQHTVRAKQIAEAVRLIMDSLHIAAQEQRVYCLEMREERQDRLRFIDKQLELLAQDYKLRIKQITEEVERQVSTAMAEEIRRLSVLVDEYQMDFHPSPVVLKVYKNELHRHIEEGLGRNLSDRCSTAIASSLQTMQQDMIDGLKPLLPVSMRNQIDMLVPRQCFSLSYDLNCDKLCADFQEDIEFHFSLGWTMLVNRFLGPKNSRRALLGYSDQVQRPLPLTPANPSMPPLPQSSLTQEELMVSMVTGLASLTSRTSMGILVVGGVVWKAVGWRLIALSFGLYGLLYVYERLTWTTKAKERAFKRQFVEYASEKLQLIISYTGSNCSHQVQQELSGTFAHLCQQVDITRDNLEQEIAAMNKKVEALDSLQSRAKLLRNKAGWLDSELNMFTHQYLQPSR

Row | stoichiometry N [1] | Molecule | stoichiometry N [2]
1 | 2 | wild type Mfn2 with a C-terminal 3xFLAG tag (from UniProt Q80U63 1-757) (natural protein) | 
2 |  | Mfn2^S378P with a C-terminal 3xFLAG tag (natural protein, UniProt Q80U63 1-757, looked up) MSLLFSRCNSIVTVKKDKRHMAEVNASPLKHFVTAKKKINGIFEQLGAYIQESASFLEDTHRNTELDPVTTEEQVLDVKGYLSKVRGISEVLARRHMKVAFFGRTSNGKSTVINAMLWDKVLPSGIGHTTNCFLRVGGTDGHEAFLLTEGSEEKKSVKTVNQLAHALHQDEQLHAGSMVSVMWPNSKCPLLKDDLVLMDSPGIDVTTELDSWIDKFCLDADVFVLVANSESTLMQTEKQFFHKVSERLSRPNIFILNNRWDASASEPEYMEEVRRQHMERCTSFLVDELGVVDRAQAGDRIFFVSAKEVLSARVQKAQGMPEGGGALAEGFQVRMFEFQNFERQFEECISQSAVKTKFEQHTVRAKQIAEAVRLIMDPLHIAAQEQRVYCLEMREERQDRLRFIDKQLELLAQDYKLRIKQITEEVERQVSTAMAEEIRRLSVLVDEYQMDFHPSPVVLKVYKNELHRHIEEGLGRNLSDRCSTAIASSLQTMQQDMIDGLKPLLPVSMRNQIDMLVPRQCFSLSYDLNCDKLCADFQEDIEFHFSLGWTMLVNRFLGPKNSRRALLGYSDQVQRPLPLTPANPSMPPLPQSSLTQEELMVSMVTGLASLTSRTSMGILVVGGVVWKAVGWRLIALSFGLYGLLYVYERLTWTTKAKERAFKRQFVEYASEKLQLIISYTGSNCSHQVQQELSGTFAHLCQQVDITRDNLEQEIAAMNKKVEALDSLQSRAKLLRNKAGWLDSELNMFTHQYLQPSR | 2
3 |  | Mfn2^C390F with a C-terminal 3xFLAG tag (natural protein, UniProt Q80U63 1-757, looked up) MSLLFSRCNSIVTVKKDKRHMAEVNASPLKHFVTAKKKINGIFEQLGAYIQESASFLEDTHRNTELDPVTTEEQVLDVKGYLSKVRGISEVLARRHMKVAFFGRTSNGKSTVINAMLWDKVLPSGIGHTTNCFLRVGGTDGHEAFLLTEGSEEKKSVKTVNQLAHALHQDEQLHAGSMVSVMWPNSKCPLLKDDLVLMDSPGIDVTTELDSWIDKFCLDADVFVLVANSESTLMQTEKQFFHKVSERLSRPNIFILNNRWDASASEPEYMEEVRRQHMERCTSFLVDELGVVDRAQAGDRIFFVSAKEVLSARVQKAQGMPEGGGALAEGFQVRMFEFQNFERQFEECISQSAVKTKFEQHTVRAKQIAEAVRLIMDSLHIAAQEQRVYFLEMREERQDRLRFIDKQLELLAQDYKLRIKQITEEVERQVSTAMAEEIRRLSVLVDEYQMDFHPSPVVLKVYKNELHRHIEEGLGRNLSDRCSTAIASSLQTMQQDMIDGLKPLLPVSMRNQIDMLVPRQCFSLSYDLNCDKLCADFQEDIEFHFSLGWTMLVNRFLGPKNSRRALLGYSDQVQRPLPLTPANPSMPPLPQSSLTQEELMVSMVTGLASLTSRTSMGILVVGGVVWKAVGWRLIALSFGLYGLLYVYERLTWTTKAKERAFKRQFVEYASEKLQLIISYTGSNCSHQVQQELSGTFAHLCQQVDITRDNLEQEIAAMNKKVEALDSLQSRAKLLRNKAGWLDSELNMFTHQYLQPSR | 2
4 |  | Mfn2^A383V with a C-terminal 3xFLAG tag (natural protein, UniProt Q80U63 1-757, looked up) MSLLFSRCNSIVTVKKDKRHMAEVNASPLKHFVTAKKKINGIFEQLGAYIQESASFLEDTHRNTELDPVTTEEQVLDVKGYLSKVRGISEVLARRHMKVAFFGRTSNGKSTVINAMLWDKVLPSGIGHTTNCFLRVGGTDGHEAFLLTEGSEEKKSVKTVNQLAHALHQDEQLHAGSMVSVMWPNSKCPLLKDDLVLMDSPGIDVTTELDSWIDKFCLDADVFVLVANSESTLMQTEKQFFHKVSERLSRPNIFILNNRWDASASEPEYMEEVRRQHMERCTSFLVDELGVVDRAQAGDRIFFVSAKEVLSARVQKAQGMPEGGGALAEGFQVRMFEFQNFERQFEECISQSAVKTKFEQHTVRAKQIAEAVRLIMDSLHIAVQEQRVYCLEMREERQDRLRFIDKQLELLAQDYKLRIKQITEEVERQVSTAMAEEIRRLSVLVDEYQMDFHPSPVVLKVYKNELHRHIEEGLGRNLSDRCSTAIASSLQTMQQDMIDGLKPLLPVSMRNQIDMLVPRQCFSLSYDLNCDKLCADFQEDIEFHFSLGWTMLVNRFLGPKNSRRALLGYSDQVQRPLPLTPANPSMPPLPQSSLTQEELMVSMVTGLASLTSRTSMGILVVGGVVWKAVGWRLIALSFGLYGLLYVYERLTWTTKAKERAFKRQFVEYASEKLQLIISYTGSNCSHQVQQELSGTFAHLCQQVDITRDNLEQEIAAMNKKVEALDSLQSRAKLLRNKAGWLDSELNMFTHQYLQPSR | 2
5 |  | Mfn2^Q386P with a C-terminal 3xFLAG tag (natural protein, UniProt Q80U63 1-757, looked up) MSLLFSRCNSIVTVKKDKRHMAEVNASPLKHFVTAKKKINGIFEQLGAYIQESASFLEDTHRNTELDPVTTEEQVLDVKGYLSKVRGISEVLARRHMKVAFFGRTSNGKSTVINAMLWDKVLPSGIGHTTNCFLRVGGTDGHEAFLLTEGSEEKKSVKTVNQLAHALHQDEQLHAGSMVSVMWPNSKCPLLKDDLVLMDSPGIDVTTELDSWIDKFCLDADVFVLVANSESTLMQTEKQFFHKVSERLSRPNIFILNNRWDASASEPEYMEEVRRQHMERCTSFLVDELGVVDRAQAGDRIFFVSAKEVLSARVQKAQGMPEGGGALAEGFQVRMFEFQNFERQFEECISQSAVKTKFEQHTVRAKQIAEAVRLIMDSLHIAAQEPRVYCLEMREERQDRLRFIDKQLELLAQDYKLRIKQITEEVERQVSTAMAEEIRRLSVLVDEYQMDFHPSPVVLKVYKNELHRHIEEGLGRNLSDRCSTAIASSLQTMQQDMIDGLKPLLPVSMRNQIDMLVPRQCFSLSYDLNCDKLCADFQEDIEFHFSLGWTMLVNRFLGPKNSRRALLGYSDQVQRPLPLTPANPSMPPLPQSSLTQEELMVSMVTGLASLTSRTSMGILVVGGVVWKAVGWRLIALSFGLYGLLYVYERLTWTTKAKERAFKRQFVEYASEKLQLIISYTGSNCSHQVQQELSGTFAHLCQQVDITRDNLEQEIAAMNKKVEALDSLQSRAKLLRNKAGWLDSELNMFTHQYLQPSR | 2

— paper doi:10.1101/651877 (bioRxiv, 2019)
